In a protein production outcome set (Wang et al. 2014) one finds protein production data, which are given here for 16 sequences.
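Also: failed if final PepcDB status was selected cloned or expressed and not failed if soluble or beyond.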

This data set is described as follows: label from the status in PepcDB records.
Consider “MLFNKMKNYKGFTAVKELWLLNLFILSVFTLSFSVSAASNDVSINNNELIGISYNTIQSDQIVVVFSFTKNITSLPIVKTSMTPAFVEVTFDANTYGKDLTETLINHAGIKGINLDAKTGKVVALISLEKLAVFDVSLNNEKEFSITFNYGESAEIVETLSPAGDDFINSIESIDFRLNGDNEGQILVYLKDSMLAADVNDKLGKLNVEFHNTEIIDDLLYKLDVTDFGTLVTSIETFKEGRNARLVIDVESGFIFTQKQEENLFILTVKKKPEKAPTYLGDTDDFTGRSISLSFQDIPVRTVLQIIADYNEFNLIISDTVTGNITLRLDGVPWDQALSIILKVKGLDKRMQGNILMVAPSDELAAREAQSLQAKQQVEELATLYSEYLQINYAKAAEFSELIKNEDTSILSDRGSVSVDERTNTLLIRDTAKSIEDIKRMITILDVPVRQVVIEARMVTVKDNMNEELGIRWGVTNTDGEFATSGSIEGASSANGTRGVTTPGVGQVPTIGDGLNVNLPVANAAGTIAFQVARLANGTILDLELSALEKENKGEVIASPRITTANQKEAYIEQGVEIPYQEAASSGATATQFKKAVLSLTVTPHITPDDKIILDLVVTQDTISDITSGFAPAIDTQRIGTQVLVNNGETIVLGGIYQQAIISTVSKIPILGDIPYLGWLFRNSSQLNEKKELLIFVTPRIVTEHF”, for which the protein production result was “failed”.
The result for “MLFNSFEFMLLFLPIAVIGYFLLQKVNKNFAKLFLVGMSLYFYAYFEVKYLLLIGVSLFTNAFIGQQIIQKINQKTRKVFLIVGLVFNISLLGYFKYSDFFLDNINTLFGTDVPLLKLLLPLGISFITFQKIGFLVDCYKRELTKFNFIDFCLFVTFFPQLIAGPIVHHSKVLPQFQDESKRRPNIENITKGLYIFGIGLTKKVVIADSLAQWADFGFSNVNQLSTTDAWVSSLAYTLQLYFDFSGYCDMAIGAALLFNIILPINFFSPYKSLSIQDFWRRWHMTLGRFFTQYVYIPLGGSRKGQIRTYLNLFTIFLISGIWHGAGWTFVIWGVLHGLAIVIHRLFKNLGGKMPKFIAWILTMGFVHVTWVFFRATSVEDALTMLNRMFNVNYLHIQTALIQFRPETLTGVSIMDNLIYSICNLFPFQVTGDHFNFQTILYLAIGIAIVLFTKNSIEKLESFRPKPIYALALASMFILSLMYLNRVSSFLYFNF” reads “failed”.
The result for “MLFSSIVFLFYFFPAVLLLYYICSFSRRLQNVVLLFASLVFYAWGDFSFLGIMIVSIIINYILGLLVGKFREKKLLAKFFIFVTCAYNLGMLFVFKYLGFVVKNIDKVGNYKLSIPNIALPIGISYFTFKAISYVVDVYKNKVEAEKNPLNIGLYIAFFPEVISGPISRYVKVGEQIKNREHSWQKFSVGACRFITGLGKKVLISNSVSIIADKVFTMNTNGPVPVTLAWLGSIAYTIQIFFDFSGYSDMVIGLGLMFGFKIDENFNYPYISKSITEFWRRWHISLSSWFRDYIYIPLGGSRVDNKDKLIRNLFIVWVSTGVWHGAEWTFIMWGFLNFVFIALEKVFSFDDLKINPVIKHIYALFIINLGWVLFRSENLIQAGKYVACMFGLRGNAFWSNYTFMFVKENAVIFIAAVILSMPIAKKVNKLVYDKVPGYKILNGVYPIAVLGVFFVCISYLIKGTYNPFIYLKF” reads “failed”; that for “MLFTMMVSLYTSRVVLATLGVEDFGIYNVVGGVVTMFAIISTSLSSAISRFITIELGKGDLRRLKTVFSTAVVIQFLMALVVVILAELIGVWFLNNKMNIPEVRMNAANWVLQFSIFTFGVNLICIPFNALIIAHERMSAFAYVSILEVSLKLLIVYLLVLMSVDKLIVYGALLLVVAIVITFAYFIYCRRHFKECKCFCRIDRFLLKRMLSFSGWNFIGASSAILRDQGVNIAINLFCGPTVNAARGMAVQVNHAINSFAQNFMTALNPQITKSFAVGDSKYMFTLIFQGARLSFYMLLFLSLPVLMSTEYILSIWLKIVPDYTIIFVRLVLIFAMCESISNPLITAMLATGSIRNYQIVVGGMQMMNFPISYILLERGYAPEITLYVAIGISLCCLALRLFMLRSMIQLPVRSYMKNVFFNICAVTIFSVAIPYLISLRLQSSFYSFLILSFSCIICSFMAIFFVGCKASERVFVVDQVRKLIKNNL”, “failed”; that for “MLFTNLDGVRNVVPVGHRQRRARPVGAGDVRAEKSLRYHLQEHGRLPLNEAVAVLSDVAEALADLKDREIVHRDLKPENILLLGGRRCLADFGIARYAEATIAKHTLKLAGTLAYMAPERWNNQRAASASDIYAPGVVAYELLEETPPFTGPYEHDYHDQHLHGPVRPSPQLRPSWRR”, “failed”.
Consider “MLGELDLATVILMQKCSYIVGLLSFIYLKMSNRGLPGPVHLAAGFAAMTVGSTLAGYGEWKILSPALWELGSVLFGIAGYALIWLGLKTLSDGRFVNRKTILFTCLVALLAIGVALQVAGNNTFRAALFNGCAALAYLGGAGVLFARWRKEPLLSRLALGAITGVSGLISLAVMKSVLFPGYASINLVTAFFFIIMLNFAISLFVMMLVAERSERKLLVLANTDPLTGVKNRRFFFQTMPAAPDPADAAMLLDIDHFKSINDRFGHAVGDSVLQEVARRISGSIRGGDVLARYGGEEFIIFLPGAGVDKACMIGERIRDAVAINEVDCGGLRVGVTISIGVATTGDMRCDLQMLAEKADRALYRAKTEGRNCVREALAA”, for which the protein production result is listed as “failed”.
The result for “MLGGQYYLIAFILAVIVVWFTTPLINHWGRRAGYVDQPSARKMHHRPMVRLGGVSIFLGSLVALLVVWNLGAFGAMSTKGEWEVWGVVLGGLAFFGIGLFDDLFDLSPFSRLLAQVAIASVVWNMGVRIDFFTLPFLGNLVYLNILSLPITVIWLVGLANAINWIDGLDGLAAGVCGIAAVVLFVLCLFMEQSEAALIAAALAGGALGFLRYNFNPAQIFMGDGGAYFMGFTLGAVAVIGLVKVAAMATVAVTAVLLPYLVLAVPILDMSVVILSRVIKGKSPFKADKGHLHHRLINAGISHRLTVLFIYALTLWAGSLALGFSNIPSGWGFAIGATVLLIYLGWQVWRNSRNVGEQD” reads “failed”; that for “MLGSQCAASEPVPAHSLWRGQDMSPNMRGALLMTGSMAAFTCNDTVVKLLGSEMPLFQILVLRSGLSAVWIYFLARRLGALHLRFGRRDRMLVALRCLSEIGATYFFLTALLNMPLANVTAVLQMLPLTVTLGAALFFGEQVGWRRMLAIGLGFCGMLLIVRPGPDGFTLHAIYAMAAVICVTARDLVTRRMSSHVPSLTVTLATALSVMSFGLVGSLTVDWVPLTTDLGLGLLAASLLVLGGYLFSVMVMRIGEVGFVAPFRYSSLLWALVLGWLVFGDWPDPLTMAGVALVVATGLFTLFRERASRHRG”, “failed”.
Under “MLGYAAMNRTLRERDPPRRCNRDMQKKTWESEGIEYAATLAAQNFEDLREILLWNRDHGIDFYRCSSKLVPWNSQFDITALPNYERVQSLAAECGALVQDNDMRLTFHPSHWCKLASESDDTVARSVESVEHHGRWLDLMGVPRSPRYAINVHIGAHYGDKAATADRFCDVVSDLAPRARDRLTVENDDTESLWSVQELVTDVASQVDIPVTFDYHHHSFTDRGLTYREGFELARETWDGARPITHYSEPARLRPDSDASPQAHADHVAAVPTWL” stands “failed”; under “MLHFQHTSIINAPPEVVWKFHERPDILQLLTPPWQPVRVVRREGGLEVGAITEFKLFLGPVPLTWLARHTECDKYRLFTDTQISGPFESWIHRHQFQPENGKTKLIDDVSYVMPGGETIEFIGGWLIQAQLEAMFRYRHYVTKRECE”, “failed”; under “MLHKVVQVRLYPSIEQKVQLAQAFGCSRWWWNYALNKSIETYKETGKGLTRAALNALLPNLKKAEDTCWLADCYSQVLQATTLNLTTAYKNFFEKRAGFPKFKSKHGKQSIQYPQNVKIVDGESSPVRAASRREGGFPSVGNWRSRSVSEGFTRKGNIKLPGNIGIVKAKIHRPIEGKIKTVTVSKTPSGKYLASILTEVEGVSTPLNTSEKPAITEGKIYGIDLGLKHFAVVSDGEKISKYDNPKHLAKHEKNLKRKQKKLARKVKGSNSRNRYRKVVAKVYERVSNSRQDFLHKLSYKLVSDSQAVIVENLHLLGMVRNHKLAKSISDAGWGMFTNFLAYKLERKGGKLVEIDRWFPSSKLCSNCFYQIGEMPLDVREWTCPSCGTHHDRDGNAAINIRAEGIRMIKAEGSAVSAVGGEVSPKLGRKSKFGHSPVITEADTVLGTPSQCG”, “failed”.
As for “MLHSTAGWKNMDFKRFSLLIATRTILAMLTLIFLTQAIMSDGYHATVLLLSAVLLIQFFEITRFISKTNAELVRFFEAVRHADFSQRFELKSLGTGFDELGSTFTDILKRIQRVRSNQEAELRHIKAIIEHVPVPLLSIDHNGKITLWNNSVRRLFGTNAVTHIDDMAQFNEDFPKKLQSILAGERTLVHITIDDMEHKLIISATEITTATQQETLLSMQDIQSELALAQLQAWQDLVSVLTHEIMNSITPVASLAKTAVDLVQDVQEKTRTLPAITNEITEELDDVLGAVKTVARRSDGLMQFVTSYRRLTRLPSPNKKTISVATIFDHVTTLAKQNWQKDNIELTASITPQALDIHVDPDMIEQILLNLLLNAEHALITTAGVIEKKNSTPKIALNAFLNVRGHVIIEVADNGKGIENKNMTQIFVPFFTTKKEGSGVGLALTRQVMLAHNGKVAVRNNSQGGATFSLTF”, the protein production entry is reported as “failed”.
In the case of “MLHTEKVEYVNQAHEDITGIARDKSIGTNLRDLTFFRQHNALAEQTLAKIFRGDQAKGEVQFSRTDGSRYWLKYIVSQFITDRGNHYALVSGEENSDEHNYKAELEHHHHHH”, the protein production result is recorded as “not failed”.
Under “MLHYQIEFDDYRQHLVHVTLRFLADPNQELWLPTWIPGSYLIREFSKHIESVQAYDEAGRILEIKKQQKNRWRLFNTDHELITVEYDAYAYDLSVRGAYVDQTRLYINPACVCLALGGQEEKACEVELFLPQELKHFQLATGLPSKSLVKGRFTLKAENYDQLIDSPFELAEQTRFSFEAGNIAHEMVISGIHATNTERLKNDLEKICATEVALFGSAPFQNYTFMTMATGNSYGGLEHCNSTSLIIPRTDLPKLNEPEEPSEDYQRFLGLCSHEYFHSWLVKFIRPENFARYNLNQESYTSLLWIFEGFTSYYDDLILLRSGVISQESYLKLLKAQIDRYLQNPGRQIQSVAESSFDAWIKFYRQDENSNNAGTSYYNKGCLVALCLDLGLRLRGSSLDALLRLLYQNTEKGVQVNERTIFELCQQLTGDSWIEQINHLINTTDELPLDQLFPEFGLSYALKHDKKMPFGMKLQDKPEGVMVQQVNRYGAAATAGLSAQDVIIAIDGLKASEKLLATYAKQQGIITILAFRRDELMSFEVERSTIDLAEVELVVQDQSKADHWLKV” stands “failed”.
The result for “MLHYVHVGNKKSPNTLLFVHGSGCNLKIFGELEKYLEDYNCILLDLKGHGESKGQCPSTVYGYIDNVANFITNSEVTKHQKNITLIGYSMGGAIVLGVALKKLPNVRKVVSLSGGARFDKLDKDFMEKIYHNQLDNNYLLECIGGIDNPLSEKYFETLEKDPDIMINDLIACKLIDLVDNLKNIDIPVKAIVAKDELLTLVEYSEIIKKEVENSELKIFETGKHFLLVVNAKGVAEEIKNFI” reads “not failed”.
On to “MLIFGFIGLFFLNIFSLHAQGIVTNKDAQEEFKWALNSYNNGIYDDALLSFKKILSFDPNNLDYHFWTGNVYYRLGYVEEALMEWRNLKDQGYKVPYLRHLISTIEQRRGIFSNYELNFKKLVKVASLDNSIYKRPHGYQITSLRADKYGGYYAANFVGNEILYFDVNNNVNALVKDGFSYLKSPYDVIEANNLLYVTLYSSDEIGVYDKVLGVKRKSIGNKGTKDGELLAPQYMAIDKRNYIYVSEWGNKRVSKFGLEGDFILHFGSRTSGYKGLLGPTGVTYLNENIYVADSLRNTIEVFDTSGNHLYSVFTSIEGIEGLSSDFVGNNVIVSSKDGVYKYSIAKKTITKILKADKMNSKISSSILDANNQMIVSDFNNAKVSVYKSDASLYDSLNVDVRRIIRLGGPKIYVELNVSSKSGLPVVGLKSENFSISNENYYIVNPKVAYNVNASKDINIAVVFDKSSYMKKYDTDQIVGLNALMELSKNKNFSFINATSVPIIDNIESLTNSIRNTSSLGPYSTDAVKTDVSLKLAGSGLMSKSSRRAVVYFSGGILNRKAFEKYSLDTIVSYYKNNDIRFYLILFGNDPINSKLQYLVNETGGAVIPFSSYEGVSKVYDLILEQKTGTYLLEYYYPGPQEPNKYFNLSVEANINQQTGRGEFAYFIN”, for which the protein production entry is “failed”.
